± gives the standard error. Fewer inactive variants are shown than the library holds.
B1: glmS ribozyme (parent)
chain: AUAAAAGCGCCAGAACUACAGAAAUGUAGUUGACGAGGAGGAGGUUUAUCGAAUUUUCGGCGGAUGCCUCCAAA

What was measured:
Settings in all cases: with glucosamine-6-phosphate
[1] = variants of: B1; test: self-cleavage kobs at 40 uM GlcN6P; higher = faster cleavage; RNA array
Summary of the method: (§1)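 Sequenced MiSeq chips were the platform: E. coli RNA polymerase transcribed barcoded ribozyme variants on them in situ, and a hybridised Cy3 probe tracked these at 37 °C. After glucosamine-6-phosphate (40 μM to 10 mM) in HEPES/KCl/Mg(OAc)2 buffer was flowed in, tiles were imaged over ~14 h. Signals normalised to baseline and to non-cleaving reference variants were reduced to per-tile medians and fit to one- or two-exponential decays to obtain kobs. kcat and KM were derived through weighted Michaelis–Menten fits across concentrations.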

[2] = variants of: B1; test: self-cleavage kobs at 640 uM GlcN6P; higher = faster cleavage; RNA array
Summary of the method: as §1

[3] = variants of: B1; test: self-cleavage kobs at 2500 uM GlcN6P; higher = faster cleavage; RNA array
Summary of the method: as §1

[4] = variants of: B1; test: self-cleavage kobs at 10000 uM GlcN6P; higher = faster cleavage; RNA array
Summary of the method: as §1

[5] = variants of: B1; test: self-cleavage kobs at 160 uM GlcN6P; higher = faster cleavage; RNA array
Summary of the method: as §1

U55G U56A
self-cleavage kobs at 40 uM GlcN6P [1]: 0.000287 ± 6.6e-05 s⁻¹
self-cleavage kobs at 640 uM GlcN6P [2]: 0.00208 ± 0.00047 s⁻¹
self-cleavage kobs at 2500 uM GlcN6P [3]: 0.00834 ± 0.0016 s⁻¹
self-cleavage kobs at 10000 uM GlcN6P [4]: 0.0131 ± 0.0051 s⁻¹

G63C U65C
self-cleavage kobs at 40 uM GlcN6P [1]: < 1e-05 s⁻¹
self-cleavage kobs at 10000 uM GlcN6P [4]: < 1e-05 s⁻¹

U55A C61G
self-cleavage kobs at 40 uM GlcN6P [1]: < 1e-05 s⁻¹
self-cleavage kobs at 10000 uM GlcN6P [4]: < 1e-05 s⁻¹

U54G G63C
self-cleavage kobs at 40 uM GlcN6P [1]: < 1e-05 s⁻¹
self-cleavage kobs at 640 uM GlcN6P [2]: < 1e-05 s⁻¹
self-cleavage kobs at 2500 uM GlcN6P [3]: < 1e-05 s⁻¹
self-cleavage kobs at 10000 uM GlcN6P [4]: < 1e-05 s⁻¹

A6C G66U
self-cleavage kobs at 160 uM GlcN6P [5]: < 1e-05 s⁻¹
self-cleavage kobs at 640 uM GlcN6P [2]: < 1e-05 s⁻¹
self-cleavage kobs at 2500 uM GlcN6P [3]: < 1e-05 s⁻¹

A6C G66C
self-cleavage kobs at 160 uM GlcN6P [5]: < 1e-05 s⁻¹
self-cleavage kobs at 640 uM GlcN6P [2]: < 1e-05 s⁻¹

C58G A64G C70G
self-cleavage kobs at 40 uM GlcN6P [1]: < 1e-05 s⁻¹

U54C C68U
self-cleavage kobs at 40 uM GlcN6P [1]: 0.000265 ± 3.7e-05 s⁻¹
self-cleavage kobs at 160 uM GlcN6P [5]: 0.000635 ± 8.4e-05 s⁻¹
self-cleavage kobs at 640 uM GlcN6P [2]: 0.000868 ± 0.00023 s⁻¹
self-cleavage kobs at 2500 uM GlcN6P [3]: 0.00216 ± 0.0005 s⁻¹
self-cleavage kobs at 10000 uM GlcN6P [4]: 0.0106 ± 0.0023 s⁻¹

U54A G62U
self-cleavage kobs at 40 uM GlcN6P [1]: < 1e-05 s⁻¹
self-cleavage kobs at 2500 uM GlcN6P [3]: < 1e-05 s⁻¹
self-cleavage kobs at 10000 uM GlcN6P [4]: < 1e-05 s⁻¹

A6U G66A C67G
self-cleavage kobs at 160 uM GlcN6P [5]: < 1e-05 s⁻¹

C58G G60A
self-cleavage kobs at 40 uM GlcN6P [1]: < 1e-05 s⁻¹

U55A U57C U69C C70U
self-cleavage kobs at 40 uM GlcN6P [1]: < 1e-05 s⁻¹

C61U C68U C70A
self-cleavage kobs at 40 uM GlcN6P [1]: < 1e-05 s⁻¹
self-cleavage kobs at 2500 uM GlcN6P [3]: < 1e-05 s⁻¹

G63C C71U
self-cleavage kobs at 40 uM GlcN6P [1]: < 1e-05 s⁻¹
self-cleavage kobs at 160 uM GlcN6P [5]: < 1e-05 s⁻¹
self-cleavage kobs at 10000 uM GlcN6P [4]: < 1e-05 s⁻¹

A6G G40U U54A
self-cleavage kobs at 160 uM GlcN6P [5]: < 1e-05 s⁻¹
self-cleavage kobs at 640 uM GlcN6P [2]: < 1e-05 s⁻¹

A6G G38C U49A
self-cleavage kobs at 160 uM GlcN6P [5]: < 1e-05 s⁻¹
self-cleavage kobs at 640 uM GlcN6P [2]: < 1e-05 s⁻¹

U54A C68G C70U
self-cleavage kobs at 40 uM GlcN6P [1]: 8.05e-05 ± 2.2e-05 s⁻¹

A6C U30G
self-cleavage kobs at 160 uM GlcN6P [5]: < 1e-05 s⁻¹

A6G A14C A42G U49G
self-cleavage kobs at 160 uM GlcN6P [5]: < 1e-05 s⁻¹

G60U G62C A64C
self-cleavage kobs at 40 uM GlcN6P [1]: < 1e-05 s⁻¹
self-cleavage kobs at 640 uM GlcN6P [2]: < 1e-05 s⁻¹

C68G C71G
self-cleavage kobs at 40 uM GlcN6P [1]: 2.7e-05 ± 1.3e-05 s⁻¹
self-cleavage kobs at 160 uM GlcN6P [5]: 7.77e-05 ± 1.5e-05 s⁻¹
self-cleavage kobs at 640 uM GlcN6P [2]: 8.75e-05 ± 2.3e-05 s⁻¹
self-cleavage kobs at 2500 uM GlcN6P [3]: 9.89e-05 ± 1.7e-05 s⁻¹

U55A G63U
self-cleavage kobs at 40 uM GlcN6P [1]: < 1e-05 s⁻¹
self-cleavage kobs at 640 uM GlcN6P [2]: < 1e-05 s⁻¹
self-cleavage kobs at 10000 uM GlcN6P [4]: < 1e-05 s⁻¹

A53U G59C
self-cleavage kobs at 40 uM GlcN6P [1]: < 1e-05 s⁻¹
self-cleavage kobs at 160 uM GlcN6P [5]: < 1e-05 s⁻¹
self-cleavage kobs at 640 uM GlcN6P [2]: < 1e-05 s⁻¹
self-cleavage kobs at 2500 uM GlcN6P [3]: < 1e-05 s⁻¹
self-cleavage kobs at 10000 uM GlcN6P [4]: < 1e-05 s⁻¹

A6C G7A
self-cleavage kobs at 160 uM GlcN6P [5]: < 1e-05 s⁻¹
self-cleavage kobs at 640 uM GlcN6P [2]: < 1e-05 s⁻¹

C61A G62C
self-cleavage kobs at 40 uM GlcN6P [1]: < 1e-05 s⁻¹
self-cleavage kobs at 160 uM GlcN6P [5]: < 1e-05 s⁻¹
self-cleavage kobs at 640 uM GlcN6P [2]: < 1e-05 s⁻¹
self-cleavage kobs at 10000 uM GlcN6P [4]: < 1e-05 s⁻¹

G60U C61U
self-cleavage kobs at 40 uM GlcN6P [1]: < 1e-05 s⁻¹
self-cleavage kobs at 640 uM GlcN6P [2]: < 1e-05 s⁻¹
self-cleavage kobs at 10000 uM GlcN6P [4]: < 1e-05 s⁻¹

A6G A52G G63U
self-cleavage kobs at 160 uM GlcN6P [5]: < 1e-05 s⁻¹
self-cleavage kobs at 640 uM GlcN6P [2]: < 1e-05 s⁻¹
self-cleavage kobs at 2500 uM GlcN6P [3]: < 1e-05 s⁻¹
